Values belong to the binder of their own block, whether it stands above or below them.
Experiments:
[1] = target: T1, Vasa 463–661 (Drosophila, UniProt P09052 463-661); assay: ITC; Vasa 463–661 titrated to the Oskar LOTUS domain (144–240); 25°C; VP-ITC; 20 mM Tris pH 7.5, 150 mM sodium chloride; curve fitted with the LOTUS monomer concentration; settings: both partners purified
T1 construct: Vasa, Drosophila, C-terminal RecA-like domain with the C-terminal extension, residues 463-661; Details are in the Supplemental Material; also called Vasa-CTD; source: E. coli (Rosetta 2), purified
T1 sequence (looked up): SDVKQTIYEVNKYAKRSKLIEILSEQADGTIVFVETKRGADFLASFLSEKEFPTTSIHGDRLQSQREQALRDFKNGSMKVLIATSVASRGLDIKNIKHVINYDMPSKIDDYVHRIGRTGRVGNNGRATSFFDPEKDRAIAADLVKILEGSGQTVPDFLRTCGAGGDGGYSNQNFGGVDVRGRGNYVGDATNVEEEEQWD

[2] = target: T2, Vasa 200–661 (Drosophila, UniProt P09052 200-661); assay: pull-down; GST pull-down with purified recombinant proteins; GST or GST fusion as bait (8.75-10 µM in the legends), Vasa as prey (17.5-20 µM in the legends); samples on an SDS gel stained with Coomassie brilliant blue; settings: both partners purified
T2 construct: Vasa, Drosophila DEAD-box RNA helicase, helicase core with the C-terminal extension, residues 200-661; It may be the same preparation as His-Vasa 200–661; Construct details are in the Supplemental Material; also called Vasa helicase core; source: E. coli (Rosetta 2), purified
T2 sequence (looked up): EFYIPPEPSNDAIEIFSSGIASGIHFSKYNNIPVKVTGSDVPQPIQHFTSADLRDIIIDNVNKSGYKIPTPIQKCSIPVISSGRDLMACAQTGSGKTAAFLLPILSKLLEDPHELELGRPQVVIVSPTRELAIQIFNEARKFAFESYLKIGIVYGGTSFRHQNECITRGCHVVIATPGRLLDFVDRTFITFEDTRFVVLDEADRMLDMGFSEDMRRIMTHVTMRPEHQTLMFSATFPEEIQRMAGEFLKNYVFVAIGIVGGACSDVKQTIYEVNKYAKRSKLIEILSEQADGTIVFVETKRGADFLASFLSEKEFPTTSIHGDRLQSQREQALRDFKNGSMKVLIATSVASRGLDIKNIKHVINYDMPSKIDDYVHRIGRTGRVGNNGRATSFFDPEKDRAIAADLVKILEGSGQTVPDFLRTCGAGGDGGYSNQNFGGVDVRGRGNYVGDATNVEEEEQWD

[3] = target: T3, His-Vasa 200–661 (Drosophila, UniProt P09052 200-661); assay: as above; settings: both partners purified
T3 construct: Vasa, Drosophila DEAD-box RNA helicase, helicase core with the C-terminal extension, residues 200-661; Construct details are in the Supplemental Material; also called His-tagged Vasa 200–661; wild-type Vasa helicase core; source: E. coli (Rosetta 2), purified
T3 sequence (looked up): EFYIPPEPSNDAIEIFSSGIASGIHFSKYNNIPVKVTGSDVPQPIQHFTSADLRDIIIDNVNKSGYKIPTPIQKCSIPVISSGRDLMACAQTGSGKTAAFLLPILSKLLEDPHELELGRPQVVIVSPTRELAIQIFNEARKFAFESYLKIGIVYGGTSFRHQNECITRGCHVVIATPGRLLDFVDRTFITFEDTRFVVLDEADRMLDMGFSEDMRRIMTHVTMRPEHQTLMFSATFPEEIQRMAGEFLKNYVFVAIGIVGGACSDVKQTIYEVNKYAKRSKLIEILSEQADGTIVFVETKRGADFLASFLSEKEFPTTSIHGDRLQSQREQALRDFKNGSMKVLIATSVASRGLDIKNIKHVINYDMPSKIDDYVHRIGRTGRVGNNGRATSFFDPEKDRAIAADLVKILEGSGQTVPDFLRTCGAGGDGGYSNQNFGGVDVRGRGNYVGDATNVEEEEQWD

[4] = target: T4, Vasa 463–623 (Drosophila, UniProt P09052 463-623); assay: crystal structure; Oskar 139–240 and Vasa 463–623 mixed in a 2:1 molar ratio; hanging drop vapor diffusion at 18°C; 1.4 Å; molecular replacement; settings: both partners purified
T4 construct: Vasa, Drosophila, C-terminal RecA-like domain without the C-terminal extension, residues 463-623; also called Vasa-CTD lacking the C-terminal extension; Vasa C-terminal RecA-like domain; source: E. coli (Rosetta 2), purified
T4 sequence (looked up): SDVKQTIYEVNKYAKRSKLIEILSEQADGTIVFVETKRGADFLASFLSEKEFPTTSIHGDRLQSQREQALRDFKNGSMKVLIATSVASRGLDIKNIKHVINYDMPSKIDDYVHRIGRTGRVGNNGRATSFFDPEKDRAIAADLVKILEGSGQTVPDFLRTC

[5] = target: the molecule itself; assay: as above

Kd [1]: ~10 µM
B1: Oskar LOTUS domain (amino acids 144–240) (domain or fragment, Drosophila, UniProt P25158 144-240, looked up)
chain: SNYISVREEYPDIDSEVRAILLSHAQNGITISSIKSEYRKLTGNPFPLHDNVTDFLLTIPNVTAECSESGKRIFNLKASLKNGHLLDMVLNQKERTS
notes: Oskar, Drosophila, LOTUS domain, residues 144-240; residue numbers are those of the long isoform; The legend notes that the LOTUS domain of Oskar forms dimers (Jeske et al. 2015); The ITC curve was fitted with the monomer concentration; Details are in the Supplemental Material; also called Osk 144–240; Oskar 144–240 (LOTUS); source: E. coli (Rosetta 2), purified

binding result [2]: binds
binding result [3]: binds
B2: GST-Oskar LOTUS (amino acids 139–240) (domain or fragment, Drosophila, UniProt P25158 139-240, looked up)
chain: MTIIESNYISVREEYPDIDSEVRAILLSHAQNGITISSIKSEYRKLTGNPFPLHDNVTDFLLTIPNVTAECSESGKRIFNLKASLKNGHLLDMVLNQKERTS
notes: Oskar, Drosophila, LOTUS (eLOTUS) domain with its C-terminal extension, residues 139-240; residue numbers are those of the long isoform; Construct details are in the Supplemental Material; also called Oskar GST-LOTUS; GST fusion of the LOTUS domain of Oskar; source: E. coli (Rosetta 2), purified

binding result [4]: binds
B3: Oskar 139–240 (LOTUS domain) (domain or fragment, Drosophila, UniProt P25158 139-240, looked up)
chain: MTIIESNYISVREEYPDIDSEVRAILLSHAQNGITISSIKSEYRKLTGNPFPLHDNVTDFLLTIPNVTAECSESGKRIFNLKASLKNGHLLDMVLNQKERTS
notes: Oskar, Drosophila, LOTUS (eLOTUS) domain with its C-terminal extension, residues 139-240; residue numbers are those of the long isoform; This is a dimer in the crystal; No tag is stated for the crystallised protein; also called LOTUS domain of Oskar (amino acids 139–240); eLOTUS; source: E. coli (Rosetta 2), purified
stoichiometry N [5]: 2

Reference: PMC5458760, “The LOTUS domain is a conserved DEAD-box RNA helicase regulator essential for the recruitment of Vasa to the germ plasm and nuage” (Genes & Development, 2017)
